Assay results as given in patent publication US20140256625A1, “ANTI-AMYLOIDOGENIC, ALPHA-HELIX BREAKING ULTRA-SMALL PEPTIDE THERAPEUTICS” (AGENCY FOR SCIENCE, TECHNOLOGY AND RESEARCH, priority 2011, published 2014).
Ends that are not written are not given here.

Molecular target: Ac-KE7 (Homo sapiens, UniProt P05067)
Experiment: Rheology of Ac-KE7 mixed with inhibitor (storage modulus, gel vs solution)
Format: physicochemical
Details: 1.5 mM Ac-KE7 mixed with inhibitor in 1:20 molar ratio, 25° C.
Text: Rheology. To determine the viscoelastic properties/behaviour, peptide-based hydrogels were subjected to dynamic time, strain and frequency sweep experiments using the ARES-G2 rheometer (TA Instruments, Piscataway, N.J.) with a 25.0 mm diameter stainless steel or titanium parallel plate geometry and a 0.8 mm or 1-2 mm gap distance. To ensure complete gelation and take account of the varying gelation speeds of different peptides at different concentrations, the rheology measurements were done 2 months after sample preparation. Oscillatory frequency sweep studies (measuring storage modulus (G′) vs. Angular frequency (ω)) were done at 0.1-100 rad/s using 1% strain. Oscillatory amplitude sweep studies (measuring storage modulus (G′) vs. oscillation strain % (γ)) were done using 0.01-100% strain with a constant angular frequency of 1 rad/s. All measurements were carried out at 25° C. […] The graphs display the storage moduli (G′ in Pa) as a function of (A) angular frequency (rad/sec) under 1% strain and (B) oscillation strain (%) at an angular frequency of 1 rad/sec at room temperature of 25° C. […] This can be seen from the rheological data, where the peptide-inhibitor solutions give a highly fluctuating curve for both the amplitude and frequency sweep measurements because they are in solution form; instead of a gel form.

Substance	hydrogel formation of Ac-KE7 (rheology)
Ac-LPE (Ac-Leu-Pro-Glu) [N-acetylated tripeptide Leu-Pro-Glu]	no gelation
Ac-LPG (Ac-Leu-Pro-Gly) [N-acetylated tripeptide Leu-Pro-Gly]	no gelation
